The assay has as its target T1, biotinylated CD59 (Homo sapiens, UniProt P13987).
T1 construct: Recombinant soluble human CD59 with an additional C-terminal cysteine residue
T1 sequence (P13987 26-102 limits assumed): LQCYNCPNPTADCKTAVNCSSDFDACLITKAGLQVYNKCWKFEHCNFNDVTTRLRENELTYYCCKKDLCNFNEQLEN
The experiment in a line: mRNA-display cyclic peptide screen against CD59-biotin, NGS abundance after 6th selection round. The following applies: for Percentage Seq I: counts normalised by total counts of sample Seq I; for Percentage Seq I / Percentage Seq II: percentage of the pool; for Percentage Seq I / Percentage Seq II / Percentage Average / Percentage of the pool, averaged across the two sequencing samples / Percentage of the pool, Seq I / Percentage of the pool, Seq II: sheet R6; for Percentage Seq II: counts normalised by total counts of sample Seq II; for Percentage Average: percentage of the pool averaged across the two sequencing samples; for Counts Seq I / Counts Seq II: raw NGS counts of peptide sequence; for Counts Seq I: sequencing sample Seq I; for Counts Seq I / Counts Seq II / Counts (raw counts for peptide sequence), Seq I / Counts (raw counts for peptide sequence), Seq II: sheet R6 (6th selection round); for Counts Seq II: sequencing sample Seq II; for Counts (raw counts for peptide sequence), Seq I: NGS sample Seq I; for Counts (raw counts for peptide sequence), Seq II: NGS sample Seq II; for Percentage of the pool, averaged across the two sequencing samples: average of Seq I and Seq II; for Percentage of the pool, Seq I: counts normalised by total counts of NGS sample Seq I; for Percentage of the pool, Seq II: counts normalised by total counts of NGS sample Seq II. The method, boiled down: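 Peptide–mRNA fusions were made by in vitro translation with a customised PURE express kit. The kit lacked release factor 1 and methionine and was supplemented with […] initiator tRNA carrying N-chloroacetyl-d-tyrosine. Thioether macrocycles were formed, then enriched and amplified over iterative rounds on CD59-biotin immobilised on streptavidin beads. NGS read counts per sequence were recorded after the 6th selection round.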

Take CFGRRADPDGI: the “Percentage Seq I” value was 0.040%, the “Percentage Seq II” value turned out to be 0.030%, the “Percentage Average” value came out at 0.035% and the “Counts Seq I” value came to 174. Besides, the “Counts Seq II” value was determined as 13.

For the sequence TAWGNRQIQYY, the “Counts (raw counts for peptide sequence), Seq I” value is reported as 73; the “Counts (raw counts for peptide sequence), Seq II” value is 7; the “Percentage of the pool, averaged across the two sequencing samples” value was determined as 0.016%; the “Percentage of the pool, Seq I” value worked out at 0.017%. Besides, the “Percentage of the pool, Seq II” value was determined as 0.016%.

As to CLRRSFLDNAGV, the “Counts (raw counts for peptide sequence), Seq I” value is recorded as 57; the “Counts (raw counts for peptide sequence), Seq II” value is 7; the “Percentage of the pool, averaged across the two sequencing samples” value was 0.015%; the “Percentage of the pool, Seq I” value amounted to 0.013%. Besides, the “Percentage of the pool, Seq II” value is 0.016%.

In the case of FQRGTRSTSWG, the “Percentage Seq I” value was determined as 0.054%, the “Percentage Seq II” value is on record as 0.035%, the “Percentage Average” value was determined as 0.045% and the “Counts Seq I” value was 238. In addition, the “Counts Seq II” value is given as 15.

In the case of VSRGDSTYTLF, the “Percentage Seq I” value is listed as 0.031%, the “Percentage Seq II” value amounted to 0.028%, the “Percentage Average” value is given as 0.030% and the “Counts Seq I” value was found to be 137. Also, the “Counts Seq II” value came to 12.

Consider LLGSSSYVKFWY, for which the “Percentage Seq I” value turned out to be 0.253%, the “Percentage Seq II” value stood at 0.265%, the “Percentage Average” value was 0.259% and the “Counts Seq I” value was determined as 1105. Also, the “Counts Seq II” value was 114.

In the case of CLRRHVTASDV, the “Percentage Seq I” value is 0.040%, the “Percentage Seq II” value is listed as 0.023%, the “Percentage Average” value was found to be 0.031% and the “Counts Seq I” value is listed as 174. Moreover, the “Counts Seq II” value is 10.

Take SKNGLTFLCS: the “Percentage Seq I” value came to 0.016%, the “Percentage Seq II” value was found to be 0.032%, the “Percentage Average” value came out at 0.024% and the “Counts Seq I” value is given as 70. Moreover, the “Counts Seq II” value is on record as 14.

On to CFSSRTGTTSV, for which the “Counts (raw counts for peptide sequence), Seq I” value was 39; the “Counts (raw counts for peptide sequence), Seq II” value amounted to 10; the “Percentage of the pool, averaged across the two sequencing samples” value worked out at 0.016%; the “Percentage of the pool, Seq I” value was 0.009%. Moreover, the “Percentage of the pool, Seq II” value stood at 0.023%.

VVHGGKDYQWS: the “Counts (raw counts for peptide sequence), Seq I” value amounted to 64; the “Counts (raw counts for peptide sequence), Seq II” value came out at 5; the “Percentage of the pool, averaged across the two sequencing samples” value is 0.013%; the “Percentage of the pool, Seq I” value came to 0.015%. Further, the “Percentage of the pool, Seq II” value is 0.012%.

Consider CYSLRLGPETV, for which the “Counts (raw counts for peptide sequence), Seq I” value is recorded as 37; the “Counts (raw counts for peptide sequence), Seq II” value is 6; the “Percentage of the pool, averaged across the two sequencing samples” value is 0.011%; the “Percentage of the pool, Seq I” value worked out at 0.00846%. In addition, the “Percentage of the pool, Seq II” value is reported as 0.014%.

WSTGSSTFAAG: the “Percentage Seq I” value worked out at 0.034%, the “Percentage Seq II” value stood at 0.042%, the “Percentage Average” value is 0.038% and the “Counts Seq I” value was determined as 149. For the same sequence, the “Counts Seq II” value is 18.

As for CFASRLTIDAV, the “Percentage Seq I” value was found to be 0.032%, the “Percentage Seq II” value came out at 0.028%, the “Percentage Average” value was 0.030% and the “Counts Seq I” value is 140. The “Counts Seq II” value came out at 12.

For the sequence TLSTNRDLIRLLAAAAAAARTGGG, the “Counts (raw counts for peptide sequence), Seq I” value amounted to 57; the “Counts (raw counts for peptide sequence), Seq II” value turned out to be 9; the “Percentage of the pool, averaged across the two sequencing samples” value worked out at 0.017%; the “Percentage of the pool, Seq I” value is given as 0.013%. The “Percentage of the pool, Seq II” value was found to be 0.021%.

With RVGSQFCAQL, the “Counts (raw counts for peptide sequence), Seq I” value amounted to 33; the “Counts (raw counts for peptide sequence), Seq II” value is listed as 9; the “Percentage of the pool, averaged across the two sequencing samples” value is 0.014%; the “Percentage of the pool, Seq I” value is reported as 0.00754%. Moreover, the “Percentage of the pool, Seq II” value worked out at 0.021%.

As to CYTYRSLDPQSV, the “Counts (raw counts for peptide sequence), Seq I” value came out at 42; the “Counts (raw counts for peptide sequence), Seq II” value was 9; the “Percentage of the pool, averaged across the two sequencing samples” value amounted to 0.015%; the “Percentage of the pool, Seq I” value is given as 0.010%. Moreover, the “Percentage of the pool, Seq II” value was 0.021%.

As for CFSRRLTAGAV, the “Percentage Seq I” value is listed as 0.031%, the “Percentage Seq II” value amounted to 0.030%, the “Percentage Average” value was determined as 0.030% and the “Counts Seq I” value is 134. Further, the “Counts Seq II” value is reported as 13.

As for HVFGNRSLTRG, the “Counts (raw counts for peptide sequence), Seq I” value came to 93; the “Counts (raw counts for peptide sequence), Seq II” value came out at 5; the “Percentage of the pool, averaged across the two sequencing samples” value is 0.016%; the “Percentage of the pool, Seq I” value is recorded as 0.021%. Further, the “Percentage of the pool, Seq II” value is reported as 0.012%.

Regarding CIDVYGRMWA, the “Percentage Seq I” value is on record as 0.086%, the “Percentage Seq II” value is 0.091%, the “Percentage Average” value was determined as 0.088% and the “Counts Seq I” value is recorded as 375. Besides, the “Counts Seq II” value is on record as 39.

With CFSRRLAAGAI, the “Counts (raw counts for peptide sequence), Seq I” value is listed as 35; the “Counts (raw counts for peptide sequence), Seq II” value came out at 5; the “Percentage of the pool, averaged across the two sequencing samples” value amounted to 0.010%; the “Percentage of the pool, Seq I” value is given as 0.008%. Besides, the “Percentage of the pool, Seq II” value turned out to be 0.012%.

CYGGRTFIYTWS: the “Counts (raw counts for peptide sequence), Seq I” value is recorded as 74; the “Counts (raw counts for peptide sequence), Seq II” value is on record as 4; the “Percentage of the pool, averaged across the two sequencing samples” value was 0.013%; the “Percentage of the pool, Seq I” value is 0.017%. Further, the “Percentage of the pool, Seq II” value is 0.009%.

Regarding SAWGNRYIAYY, the “Counts (raw counts for peptide sequence), Seq I” value came to 47; the “Counts (raw counts for peptide sequence), Seq II” value stood at 6; the “Percentage of the pool, averaged across the two sequencing samples” value stood at 0.012%; the “Percentage of the pool, Seq I” value came to 0.011%. Further, the “Percentage of the pool, Seq II” value is on record as 0.014%.

Consider CFAGRLTTDAV, for which the “Percentage Seq I” value is recorded as 0.044%, the “Percentage Seq II” value is 0.044%, the “Percentage Average” value is 0.044% and the “Counts Seq I” value is 193. Moreover, the “Counts Seq II” value was found to be 19.

Turning to SAWGNRQIQCY, the “Counts (raw counts for peptide sequence), Seq I” value was determined as 55; the “Counts (raw counts for peptide sequence), Seq II” value is reported as 5; the “Percentage of the pool, averaged across the two sequencing samples” value is recorded as 0.012%; the “Percentage of the pool, Seq I” value is on record as 0.013%. The “Percentage of the pool, Seq II” value was 0.012%.

Regarding FVTSNRDHTRG, the “Counts (raw counts for peptide sequence), Seq I” value is given as 23; the “Counts (raw counts for peptide sequence), Seq II” value is 6; the “Percentage of the pool, averaged across the two sequencing samples” value worked out at 0.010%; the “Percentage of the pool, Seq I” value was determined as 0.005%. For the same sequence, the “Percentage of the pool, Seq II” value amounted to 0.014%.

Consider ASWLPSPCKFS, for which the “Counts (raw counts for peptide sequence), Seq I” value was 73; the “Counts (raw counts for peptide sequence), Seq II” value is given as 4; the “Percentage of the pool, averaged across the two sequencing samples” value was 0.013%; the “Percentage of the pool, Seq I” value was determined as 0.017%. Also, the “Percentage of the pool, Seq II” value was determined as 0.009%.
